Source: US20110171292A1 (RESEARCH FOUNDATION OF STATE UNIVERSITY OF NEW YORK, published 2011)
Positions of bridges follow the written chain, without caps; N, C: chain ends. No end group written: not given here.

Biological target: thioredoxin reductase
Assay: cell-based or functional assay

## GTCVNVGCIPRQIKIWFQNRRMKWKK (disulfide 3-8 (inferred)) [peptide YJB02]
  IC50 of thioredoxin reductase activity (DTNB reduction, absorbance at 405-414 nM): 36 nM
